Assay [1] has as its target monkey MSLN full-length protein expressed on HEK293T cells (HEK293T-monkey MSLN) (monkey). The assay can be described thus: FACS on HEK293T-monkey MSLN cells.
Assay [2] deals with human MSLN on OVCAR3 tumor cells (human) (UniProt Q13421). The assay can be described thus: FACS, OVCAR3 cells.
Sequence of human MSLN on OVCAR3 tumor cells (human) (Q13421 other isoform, or with tags, fused parts or gaps): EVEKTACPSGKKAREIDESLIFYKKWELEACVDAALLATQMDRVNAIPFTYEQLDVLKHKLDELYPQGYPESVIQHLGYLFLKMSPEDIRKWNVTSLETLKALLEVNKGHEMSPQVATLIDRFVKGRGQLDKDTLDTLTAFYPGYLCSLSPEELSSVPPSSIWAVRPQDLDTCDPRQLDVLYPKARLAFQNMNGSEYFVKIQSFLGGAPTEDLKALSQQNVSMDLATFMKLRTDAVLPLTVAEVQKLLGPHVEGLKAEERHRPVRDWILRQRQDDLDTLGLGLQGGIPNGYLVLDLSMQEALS

B1: S009-F8-33.12 (antibody, human IgG1, kappa, V domains shown)
VH: EVQLQQSGAELVKPGASVKLSCTASAFNIKDYYMHWVKQRTEQGLEWIGRIDPEDGETKYAPKFQGKATITADTSSNTAYLQLSSLTSEDTAVYYCASGSGTGAMDYWGQGTSVTVSS
VL: DIVMTQSQKFMSTSVGDRVSITCKASQNVRTAVGWYQQKPGQSPKALIYLASNRHTGVPDRFTGSGSGTDFTLTISNVQSEDLADYFCLQHWNSPYTFGGGTKLVIKR
Regarding B1, in assay [1], the half-maximal effective concentration (EC50) (commonly the concentration at which the effect is half-maximal) turned out to be 0.64 nM and the Maximum mean fluorescence intensity turned out to be 106000.

B2: S009-F8-5.15 (antibody, human IgG1, kappa, V domains shown)
VH: QVQLQQPGTELVKPGASVKLSCKASGYTFTSYWMHWVKQRPGQGLEWIGHSNPSNGGTNYNEKFKSKATLTVDKSSSTAYMQLSSLTSEDSAVYYCARWVRGSNYEYFDVWGTGTTVTVSS
VL: DIVMTQSQKFMSTTVGDRVSIICKASQNVGSAVAWCQQKPGQSPKLLIYSASNRYTGVPDRFTGSGSGTDFTLTISNMQSEDLADYFCQQYSSYPLTFAGGTKLEIKR
As for B2, in assay [1], the EC50 is 0.18 nM and the Maximum mean fluorescence intensity worked out at 20200.

B3: S009-F8-8.22 (antibody, human IgG1, kappa, V domains shown)
VH: EVQLQQSGPELVKPGASVKMSCKASGYTFTDYIIHWVKQSHGKSLEWIAYIFPNNGGTGYNQKFRGKATLTVNKSSSTAYMELRSLTSEDSAVYYCARWRLRQYFDVWGTGTTVTVSS
VL: DIVMTQSQKFMSTIVGDRVSITCKASQNVGTAVAWYQQKPGQSPKLLIYSASNRYTGVPDRFTGSGSGTDFTLTISNMQSEDLADYFCQQYSSYPLTFGGGTKLEIKR
In assay [1], B3 returned an EC50 of 0.36 nM and a Maximum mean fluorescence intensity of 112000.

B4: S009-F8-24.14 (antibody, human IgG1, kappa, V domains shown)
VH: EFQLQQSGPELVKPGASVKISCKASGYSFTDYNMNWVKLSNGKSLEWIGVIIPNYGTSSYNQKFKGKATLTVDQSSSTAYMQLNSLTSEDSAVYYCARWDNYYGSSLDYWGQGTTLTVSS
VL: DIVMTQSQKFMSTTVGDRVSITCKASQNVGTAVAWYQQKPGQSPKLLIYSASNRYTGVPDRFTGSGSGTDFILTISNMQSEDLADYFCQQYSSYPLTFGAGTKLELKR
In assay [1], B4 displayed an EC50 of 0.52 nM and a Maximum mean fluorescence intensity of 105000.

B5: S009-F8-12.13 (antibody, human IgG1, kappa, V domains shown)
VH: QVQLQQPGAELVKPGASVKLSCKASGYTFTSYWMHWVKQRPGQGLEWIGMIHPNSGSTNYNEKFKSKATLTVDKSSSTAYMQLSSLTSEDSAVYYCARRTPIITLVGHWYFDVWGTGTTVTVSS
VL: DIVMTQSHKFMSTSVGDRVSITCKASQDVGTAVAWYQQKPGQSPKLLIYWASTRHTGVPDRFTGSGSGTDFTLTISNVQSEDLADYFCQQYSSYPLTFGAGTKLELKR
As for B5, in assay [1], the EC50 was found to be 0.08 nM and the Maximum mean fluorescence intensity was 21500.

B6: S009-F8-15.19 (antibody, human IgG1, kappa, V domains shown)
VH: EFQLQQSGPELVKPGASVKISCKASGYSFTDYNMNWVKQSNGKSLEWIGIINPYYGTTSNNQNFKGKATLTVDQSSSTAYMQLNSLTSDDSAVYYCARWLRRDAMDYWGQGTSVTVSS
VL: DIVMTPSHKFMSTSVGDRVSIACKASQDVGSSVAWYQQKPGQSPKLLIYWTSTRHTGVPDRFTGSGSGTDFTLTISNVQSEDLADYFCQQYSSYPWTFGGGTKLEIKR
In assay [1], B6 returned an EC50 of 0.39 nM and a Maximum mean fluorescence intensity of 28200.

B7: S009-F8-22.23 (antibody, human IgG1, kappa, V domains shown)
VH: QVQLKQSGPGLVQPSQSLSITCTVSGFSLFSYGVHWVRQSPGKGLEWLGVIWSGGSTDYNAAFISRLSISKDNSKSQVFFKMNSLQADDTAMYYCARNGGSMITTLYYAMDYWGQGTSVTVSS
VL: DVVMTQTPLSLPVSLGDQASISCRSSQSLVHSYGNTYLHWYLQKPGQSPKLLIYKVSNRFSGVPDRFSGSGSGTDFTLKISRVEAEDLGVYFCSQSTHIPFTFGGGTKLEIKR
In assay [1], B7 had an EC50 of 1.09 nM and a Maximum mean fluorescence intensity of 114000.

B8: S009-F8-32.3 (antibody, human IgG1, kappa, V domains shown)
VH: QVQLKESGPGLVAPSQSLSITCTVSGFSLSSYAISWVRQPPGKGLEWLGVIWTGGGTNYNSALKSRLSISKDNSKSQVFLKMNSLQTDDTARFYCARNNYGRLDYAMDYWGQGTSVTVSS
VL: DVVMTQTPLSLPVSLGDQASISCRSSQSLVHGNGNTYLHWYLQKPGQSPKLLIYKVSNRFSGVPDRFSGSGSGTDFTLKISRVETEDLGVYFCSQSTHVPFTFGSGTKLEIKR
For the molecule B8, in assay [1], the EC50 stood at 0.69 nM and the Maximum mean fluorescence intensity turned out to be 112000.

B9: S009-F8-27.1 (antibody, human IgG1, kappa, V domains shown)
VH: EVQLVESGGGLVKPGGSLKLSCAASGFTFSSYAMSWVRQTPEKRLEWVATISDGGNYTYYPDNVKGRFTISRDNAKNNLYLQMSHLKSEDTAMYYCAGDRGYPYAMDSWGQGTSVTVSS
VL: NIMMTQSPSSLAVSAGEKVTMSCKSSQSVLYSSNQKNYLAWYQQKPGQSPKLLIYWASTRESGVPDRFTGSGSGTDFTLTISNVHAEDLAVYYCHQYLSSLTFGAGTKLELKR
Take B9: in assay [1], the concentration giving a half-maximal response (EC50) is 2.05 nM and the Maximum mean fluorescence intensity was determined as 31300.

B10: S009-F8-4.5 (antibody, human IgG1, kappa, V domains shown)
VH: QVQLQQPGAELVKPGASVKLSCKASGYTFTIYWMHWVKQRPGQGLEWIGMIHPNSGNTNYNEKFKSKATLTVDKSSSTAYMQLSSLTSEDSAVYYCSLIHWYFDVWGTGTTVTVSS
VL: QIVLTQSPAIMSASPGEKVTMTCSASSSVSYMYWYQQKPGSSPRLLIYDTSNLASGVPVRFSGSGSGTSYSLTISRMEAEDAATYYCQQWSSYPLTFGAGTKLELKR
For the molecule B10, in assay [1], the EC50 was 0.64 nM and the Maximum mean fluorescence intensity amounted to 35000.

B11: S009-F8-29.1 (antibody, human IgG1, kappa, V domains shown)
VH: QVQLQQSGAELARPGASVKMSCKASGYTFISYTMHWVKQRPGQGLEWIGYINPSSGYTKYNQKFKDKATLTADKSSSTAYMQLNSLTSEDSAVYYCARYYSNPDYYAMDYWGQGTSVTVSS
VL: QIVLTQSPAIMSASPGEKVTITCSASSSVSYMHWFQQKPGTSPKLWIYSTSNLASGVPARFSGSGSGTSYSLTISRMEAEDAATYYCQQRSSYPLTFGGGTKLELKR
B11 gave a Maximum mean fluorescence intensity in assay [1] of 80.

B12: S009-F8-13.8 (antibody, human IgG1, kappa, V domains shown)
VH: EFQLQQSGPELVKPGASVKISCKASGYSFTDYNMNWVKQTNGKSLEWIGIINPNYGTSSYNQKFKGKATLTVDQSSSTAYMQLNSLTSEDSAVYYCARVGRDNSGFDYWGQGTTLTVSS
VL: QIVLTQSPAIMSASPGEKVTMTCSASSSVSYMYWYQQKPGSSPRLLIYDTSNLASGVPVRFSGSGSGTSYSLTISRMEAEDAATYYCQQWSSYPPTFGSGTELEIKR
In assay [1], B12 had an EC50 of 0.15 nM and a Maximum mean fluorescence intensity of 20500.

B13: F3.80.22-H1 (scFv, not shown: small tags and cut ends)
scFv: DIVMTQTPLSLPVTPGEPASISCRSSQSLEHNNGNTYLHWFLQKPGQSPQLLIYKVSNRFSGVPDRFSGSGSGTDFTLKISRVEAEDVGVYYCSQSTHVPFTFGQGTKLEIKGGGGSGGGGSGGGGSEVQLVQSGAEVKKPGATVKISCKVSGYTFTDYEIHWVQQAPGKGLEWMGAFDPEIGGSAYNQKFKDRVTITADKSTDTAYMELSSLRSEDTAVYYCTDYYGSSSGYFDVWGQGTTVTVSS
In the case of B13, in assay [2], the Maximum MFI worked out at 471 MFI.

B14: F3.80.22-H2 (scFv, not shown: small tags and cut ends)
scFv: DIVMTQTPLSLPVTPGEPASISCRSSQSLEHNNGNTYLHWFLQKPGQSPQLLIYKVSNRFSGVPDRFSGSGSGTDFTLKISRVEAEDVGVYYCSQSTHVPFTFGQGTKLEIKGGGGSGGGGSGGGGSEVQLVQSGAEVKKPGATVKISCKASGYTFTDYEIHWVQQAPGKGLEWMGAFDPEIGGSAYNQKFKDRVTITADKSTSTAYMELSSLRSEDTAVYYCTDYYGSSSGYFDVWGQGTTVTVSS
Consider B14, for which, in assay [2], the Maximum MFI was determined as 512 MFI.

B15: S009-F8-9.16 (antibody, human IgG1, kappa, V domains shown)
VH: EVHLQQSGPVLVKPGASVKMSCKASGYTFTDYFMNWVKQSHGKSLEWIGVINPHNGYVNYNQKFQGRATLTVDKSSSTVYMELNSLTSEDSAVYHCARSAESAWFAYWGQRTLVTVSA
VL: DVLMTQTPLSLPVSLGDQVSISCRSSQSIVHVKGNTYLEWYLQKPGQSPELLIYKVSNRFSGVPDRFSGGGSGTDFTLKISRVEPEDLGVYYCFQGSHLPYTFGGGTKLEIKR
For B15, in assay [1], the Maximum mean fluorescence intensity stood at 348.

B16: S009-F8-31.22 (antibody, human IgG1, kappa, V domains shown)
VH: EVQLVESGGDLVKPGGSLKLSCAASGFTFSTYGMSWVRQTPDKRLEWVATISSGGSYTYYPDSLKGRFTISRDNAKNTLYLQMSSLKSEDTAMYYCARHEGYYYGKDYWGQGTTLTVSS
VL: DIVLTQSPATLSVTPGDSVSLSCRASHSISNNLHWYQQKSHESPRLLIKYASQSISGIPSKFSGSGSGTDFTLSINSVETEDFGMYFCQQTNSWPLTFGAGTKLELKR
In assay [1], B16 came in with a Maximum mean fluorescence intensity of 3390.

B17: S009-F8-18.9 (antibody, human IgG1, kappa, V domains shown)
VH: EFQLQQSGPELVKPGASVKISCKASGYSFTDYNMNWVKQSNGKSLEWIGIINPNYGTTSYNQKFKGRATLTVDQSSSTAYVQLNSLTSEDSAVYYCARGGYDNEAMDYWGQGTSVTVSS
VL: QIVLTQSPAIMSASPGEKVTMTCSASSSVSYMHWYQQKSGTSPKRWIYDTSKLASGVPARFSGSGSGTSYSLTISSMEAEDAATYYCQQWSSNPPTFGAGTKLELKR
In assay [1], B17 displayed an EC50 of 0.81 nM and a Maximum mean fluorescence intensity of 24900.

B18: S009-F8-19.21 (antibody, human IgG1, kappa, V domains shown)
VH: EFQLQQSGPELVKPGASVKISCKTSGYSFTDYNMNWVKQSNGKSLEWIGVINPNYGTTGYNQKFKGKATLTVDQSSSTAYMQLNSLTSEDSAVYYCARGGYDGEAMDYWGHGTSVTVSS
VL: QIVLTQSPAIMSASPGEKVTMTCSASSSVNYMHWYQQKSGTSPKRWIYDTSKLASGVPARFSGSGSGTSYSLTISSMEAEDAATYYCQQWSSYPPTFGGGTKLEIKR
In assay [1], B18 displayed an EC50 of 0.3 nM and a Maximum mean fluorescence intensity of 24900.

B19: S009-F8-36.12 (antibody, human IgG1, kappa, V domains shown)
VH: EVQLQQSGPELVKPGASVKISCKASGYTFTDYYMNWVKQSHGKSLEWIGDINPNNGGTSYNQKFKGKATLTVDKSSSTAYMELRSLTSEDSAVYYCASWGYGSSSRGYFDYWGQGTTLTVSS
VL: QIVLSQSPAILSASPGEKVTMTCRASSSVSYMHWYQQKPGSSPKPWIYATSNLASGVPARFSGSGSGTSYSLTISRVEAEDAATYYCQQWSSNPWTFGGGTKLEIKR
Molecule B19 gave a Maximum mean fluorescence intensity in assay [1] of 173.

These data come from US20250250357A1.
